Source: US7588931B2, “High arachidonic acid producing strains of Yarrowia lipolytica” (E. I. du Pont de Nemours and Company, priority 2004, dated 2009)

Tested on: Yarrowia lipolytica strain ATCC #76982(Leu-)
Experiment: EDA substrate feeding of Y. lipolytica expressing codon-optimized Δ8 desaturase genes
Type: cell-based
Conditions: MM containing 10 μg of EDA substrate, about 24 hr at 30° C.
Protocol: Yarrowia lipolytica strain ATCC #76982(Leu-) was transformed with pDMW240 (FIG. 8D) and pDMW255, respectively, as described in the General Methods. Yeast containing the recombinant constructs were grown in MM supplemented with EDA [20:2(11,14)]. Specifically, single colonies of transformant Y. lipolytica containing either pDMW240 (containing D8S-1) or pDMW255 (containing D8S-2) were grown in 3 mL MM at 30° C. to an OD600˜1.0. For substrate feeding, 100 μl of cells were then subcultured in 3 mL MM containing 10 μg of EDA substrate for about 24 hr at 30° C. The cells were collected by centrifugation, lipids were extracted, and fatty acid methyl esters were prepared by trans-esterification, and subsequently analyzed with a Hewlett-Packard 6890 GC.
A three amino acid difference between the protein sequence of the Δ8 desaturase deposited in GenBank (Accession No. AAD45877 [SEQ ID NO:43]) and in WO 00/34439 or Wallis et al. (Archives of Biochem. Biophys, 365:307-316 (1999)) (SEQ ID NO:252 herein) was found. Specifically, three amino acids appeared to be missing in GenBank Accession No. […]. […]

B1: D8S-3: synthetic Δ8 desaturase gene in pDMW261, SEQ ID NO:255 (protein)
chain: MKSKRQALSPLQLMEQTYDVSAWVNFHPGGAEIIENYQGRDATDAFMVMHFQEAFDKLKRMPKINPSFELPPQAAVNEAQEDFRKLREELIATGMFDASPLWYSYKISTTLGLGVLGYFLMVQYQMYFIGAVLLGMHYQQMGWLSHDICHHQTFKNRNWNNLVGLVFGNGLQGFSVTCWKDRHNAHHSATNVQGHDPDIDNLPPLAWSEDDVTRASPISRKLIQFQQYYFLVICILLRFIWCFQCVLTVRSLKDRDNQFYRSQYKKEAIGLALHWTLKALFHLFFMPSILTSLLVFFVSELVGGFGIAIVVFMNHYPLEKIGDPVWDGHGFSVGQIHETMNIRRGIITDWFFGGLNYQIEHHLWPTLPRHNLTAVSYQVEQLCQKHNLPYRNPLPHEGLVILLRYLAVFARMAEKQPAGKAL
modifications: D8S-3: synthetic delta 8-desaturase gene codon-optimized for Yarrowia lipolytica in pDMW261
  desaturation of EDA to DGLA: No desaturation of EDA to DGLA was observed
